Substitutions are numbered along the chain they refer to. Names and notes keep the numbering of the source.

The term Kd denotes the equilibrium constant for the complex coming apart. The stoichiometry N is the number of molecules, sites or subunits per partner or assembly.

Test [1] concerns the target C3G-AAPA (human), Q13905. The test is described as follows: ITC; single-PRM mutants of C3G in the cell titrated with full-length CrkL or CrkL-SH3N; 25 °C; 1:1 model in SEDPHAT; N is the competent fraction of C3G. (In general: ITC needs no label: the signal is the heat of the interaction.)
Another test deals with C3G-AAAP (human), Q13905. Described as above.
Test [2] deals with Src-phosphorylated C3G-AAAP (pC3G-AAAP) (human), Q13905.
For test [3], the target named is Src-phosphorylated C3G-AAPP (pC3G-AAPP) (human), Q13905.
Test [4] deals with C3G-AAPA (human), Q13905.
Test [5] addresses Src-phosphorylated C3G-AAPA (pC3G-AAPA) (human), Q13905.
Test [6] concerns the target GST-CrkL-SH3N. The test is described as follows: pull-down. The settings on record: chain shown with the change, PD with GST-CrkL-SH3N, C3G detected by western blot (WB:C3G), parent: 1.0.
In test [7] the target is GST-CrkL-SH3N. The test is described as follows: pull-down. The conditions noted are these: chain shown with the change; PD with GST-CrkL-SH3N, C3G detected by western blot (WB:C3G); parent: 1.0. (In western blotting, separated proteins are transferred to a membrane and probed.)

B1: CrkL, full-length (human), P46109 1-303 (natural protein)
chain: MSSARFDSSDRSAWYMGPVSRQEAQTRLQGQRHGMFLVRDSSTCPGDYVLSVSENSRVSHYIINSLPNRRFKIGDQEFDHLPALLEFYKIHYLDTTTLIEPAPRYPSPPMGSVSAPNLPTAEDNLEYVRTLYDFPGNDAEDLPFKKGEILVIIEKPEEQWWSARNKDGRVGMIPVPYVEKLVRSSPHGKHGNRNSNSYGIPEPAHAYAQPQTTTPLPAVSGSPGAAITPLPSTQNGPVFAKAIQKRVPCAYDKTALALEVGDIVKVTRMNINGQWEGEVNGRKGLFPFTHVKIFDPQNPDENE
Consider B1, for which, in the test with C3G-AAPA (human), Q13905 [1], the Kd amounted to 2 µM and the stoichiometry N stood at 0.13. In the test with C3G-AAAP (human), Q13905, this molecule showed a Kd of 2 µM and a stoichiometry N of 0.55. Besides, in [2], the AC50 of the dose-response activation of the GEF activity of pC3G (0.2 µM) on Rap1b:mant-dGDP; the text says that pC3G-AAAP was not stimulated by CrkL is 0.6 µM and the kmax of the dose-response activation of the GEF activity of pC3G (0.2 µM) on Rap1b:mant-dGDP; the text says that pC3G-AAAP was not stimulated by CrkL came out at 0.0045 s^-1 µM^-1. In test [3], this molecule gave an AC50 of the dose-response activation of the GEF activity of pC3G (0.2 µM) on Rap1b:mant-dGDP of 2.2 µM and a kmax of the dose-response activation of the GEF activity of pC3G (0.2 µM) on Rap1b:mant-dGDP of 0.0357 s^-1 µM^-1. Besides, in the test with C3G-AAPP (human), Q13905, the AC50 of the dose-response activation of the GEF activity of C3G (1 µM) on Rap1b:mant-dGDP was 23.7 µM and the kmax of the dose-response activation of the GEF activity of C3G (1 µM) on Rap1b:mant-dGDP amounted to 13600 M⁻¹ s⁻¹. Besides, in the test with C3G-AAPA (human), Q13905 [4], the AC50 of the dose-response activation of the GEF activity of C3G (1 µM) on Rap1b:mant-dGDP turned out to be 28.1 µM and the kmax of the dose-response activation of the GEF activity of C3G (1 µM) on Rap1b:mant-dGDP came to 9100 M⁻¹ s⁻¹. In test [5], this molecule returned an AC50 of the dose-response activation of the GEF activity of pC3G (0.2 µM) on Rap1b:mant-dGDP of 1.3 µM and a kmax of the dose-response activation of the GEF activity of pC3G (0.2 µM) on Rap1b:mant-dGDP of 0.0269 s^-1 µM^-1.

B2: C3G (full-length, residues 4-1077), Q13905-1 P283A; P284A; L286A; P287A; K289A; P453A; P454A; L456A; P457A; K459A; P540A; P541A; L543A; P544A; K546A (protein)
chain: DSQRSHLSSFTMKLMDKFHSPKIKRTPSKKGKPAEVSVKIPEKPVNKEATDRFLPEGYPLPLDLEQQAVEFMSTSAVASRSQRQKNLSWLEEKEKEVVSALRYFKTIVDKMAIDKKVLEMLPGSASKVLEAILPLVQNDPRIQHSSALSSCYSRVYQSLANLIRWSDQVMLEGVNSEDKEMVTTVKGVIKAVLDGVKELVRLTIEKQGRPSPTSPVKPSSPASKPDGPAELPLTDREVEILNKTTGMSQSTELLPDATDEEVAPPKPPLPGIRVVDNSPAAAAAPAKRQSAPSPTRVAVVAPMSRATSGSSLPVGINRQDFDVDCYAQRRLSGGSHSYGGESPRLSPCSSIGKLSKSDEQLSSLDRDSGQCSRNTSCETLDHYDPDYEFLQQDLSNADQIPQQTAWNLSPLPESLGESGSPFLGPPFQLPLGGHPQPDGPLAPGQQTDTAAAAAEAKRRSAASQTADGSGCRVSYERHPSQYDNISGEDLQSTAPIPSVPYAPFAAILPFQHGGSSAPVEFVGDFTAPESTGDPEKAAPAAEAKNKHMLAYMQLLEDYSEPQPSMFYQTPQNEHIYQQKNKLLMEVYGFSDSFSGVDSVQELAPPPALPPKQRQLEPPAGKDGHPRDPSAVSGVPGKDSRDGSERAPKSPDALESAQSEEEVDELSLIDHNEIMSRLTLKQEGDDGPDVRGGSGDILLVHATETDRKDLVLYCEAFLTTYRTFISPEELIKKLQYRYEKFSPFADTFKKRVSKNTFFVLVRVVDELCLVELTEEILKLLMELVFRLVCNGELSLARVLRKNILDKVDQKKLLRCATSSQPLAARGVAARPGTLHDFHSHEIAEQLTLLDAELFYKIEIPEVLLWAKEQNEEKSPNLTQFTEHFNNMSYWVRSIIMLQEKAQDRERLLLKFIKIMKHLRKLNNFNSYLAILSALDSAPIRRLEWQKQTSEGLAEYCTLIDSSSSFRAYRAALSEVEPPCIPYLGLILQDLTFVHLGNPDYIDGKVNFSKRWQQFNILDSMRCFQQAHYDMRRNDDIINFFNDFSDHLAEEALWELSLKIKPRNITRRKTDREEKT
On to B2, for which the ratio to parent with GST-CrkL-SH3N [6] (C3G-AAAP phosphorylated by Src (phospho AAAP)) came to 0.4; with GST-CrkL-SH3N [6], 0.4; with GST-CrkL-SH3N [7] it was 0.3.

B3: C3G (full-length, residues 4-1077), Q13905-1 P283A; P284A; L286A; P287A; K289A; P540A; P541A; L543A; P544A; K546A; P608A; P609A; L611A; P612A; K614A (protein)
chain: B2 chain with A450P, A451P, A453L, A454P, A456K, P605A, P606A, L608A, P609A, K611A
Regarding B3, the ratio to parent with GST-CrkL-SH3N [7] turned out to be 0.4.

B4: C3G (full-length, residues 4-1077), Q13905-1 P283A; P284A; L286A; P287A; K289A; P453A; P454A; L456A; P457A; K459A; P540A; P541A; L543A; P544A; K546A; Y554H (protein)
chain: B2 chain with Y551H
With B4, the ratio to parent with GST-CrkL-SH3N [6] is 0.4.

B5: C3G (full-length, residues 4-1077), Q13905-1 P283A; P284A; L286A; P287A; K289A; P453A; P454A; L456A; P457A; K459A; P608A; P609A; L611A; P612A; K614A (protein)
chain: B2 chain with A537P, A538P, A540L, A541P, A543K, P605A, P606A, L608A, P609A, K611A
Regarding B5, the ratio to parent in the test with GST-CrkL-SH3N [6] (C3G-AAPA phosphorylated by Src (phospho AAPA)) is 0.3.

B6: CrkL-SH3N (residues 125-182), P46109 125-182 (domain or fragment)
chain: LEYVRTLYDFPGNDAEDLPFKKGEILVIIEKPEEQWWSARNKDGRVGMIPVPYVEKLV
In the test with C3G-AAPA (human), Q13905 [1], B6 displayed a Kd of 3.5 µM and a stoichiometry N of 0.2.

Values taken from publication PMC9896810.
